Measurements taken from patent US4790988A, “Method and compositions for the treatment of thrombotic episodes” (University of Florida, priority 1987, dated 1988).

Test system: thrombus in the circumflex coronary artery
Assay: Electrically induced coronary thrombus model in dogs, restoration of blood flow
Assay type: in vivo
Conditions: infused into a peripheral vein for 30 minutes at 10 microgram/kg/min; mongrel dogs
Procedure: A thrombus was introduced into the circumflex coronary artery of mongrel dogs by electrical current. Blood flow in the artery was measured by a commercially available electromagnetic flow probe. After stable blood flow for five minutes without electrical current, homogeneous recombinant human tissue plasminogen activator (Genentech) was infused into a peripheral vein for 30 minutes at a dose of 10 microgram/kg/min. In another cohort of animals, pentapeptide 6A was infused intra-arterially proximal to the occlusion at a dose of 5 micromoles/min for 20 min.

B1: tissue plasminogen activator: homogeneous recombinant human tissue plasminogen activator (Genentech) (protein, UniProt P00750 36-562, looked up)
Tissue-type plasminogen …: SYQVICRDEKTQMIYQQHQSWLRPVLRSNRVEYCWCNSGRAQCHSVPVKSCSEPRCFNGGTCQQALYFSDFVCQCPEGFAGKCCEIDTRATCYEDQGISYRGTWSTAESGAECTNWNSSALAQKPYSGRRPDAIRLGLGNHNYCRNPDRDSKPWCYVFKAGKYSSEFCSTPACSEGNSDCYFGNGSAYRGTHSLTESGASCLPWNSMILIGKVYTAQNPSAQALGLGKHNYCRNPDGDAKPWCHVLKNRRLTWEYCDVPSCSTCGLRQYSQPQFRIKGGLFADIASHPWQAAIFAKHRRSPGERFLCGGILISSCWILSAAHCFQERFPPHHLTVILGRTYRVVPGEEEQKFEVEKYIVHKEFDDDTYDNDIALLQLKSDSSRCAQESSVVRTVCLPPADLQLPDWTECELSGYGKHEALSPFYSERLKEAHVRLYPSSRCTSQHLLNRTVTDNMLCAGDTRSGGPQANLHDACQGDSGGPLVCLNDGRMTLVGIISWGLGCGQKDVPGVYTKVTNYLDWIRDNMRP
animals with coronary blood flow restored: 5 of 7
duration reflow persisted: 20.0 ± 10.9 min
peak restored coronary blood flow (mean±SD): 22 ± 12 mL/min
time to flow restoration: 12.3 ± 9.1 min
